In patent US20140087995A1 (published 2014):
Numbered stars: 1 amine (or outer) side, 2 acyl side, 3 side chain; on linkers, the order of the positions; unused ones are H or OH. Bridge positions count the residues as written; N and C are the ends. Side chains are listed from the residue outwards. Ends that are not written are not given here. * marks the point of attachment. C20 diacid = O=C(O)CCCCCCCCCCCCCCCCCCC(=O)*; γGlu = O=C(O)[C@H](CCC(=O)[*:2])N[*:1]

Legend:
[1] = target: T1, human calcitonin receptor (human, UniProt P30988 25-474); test: ratio IC50 hCTR / IC50 hAmylin-R (reference: human amylin receptor), SPA competition assays
T1 construct: whole, on cells; Assay used cell membranes, not intact cells; also called hCTR; hCT
T1 sequence (looked up): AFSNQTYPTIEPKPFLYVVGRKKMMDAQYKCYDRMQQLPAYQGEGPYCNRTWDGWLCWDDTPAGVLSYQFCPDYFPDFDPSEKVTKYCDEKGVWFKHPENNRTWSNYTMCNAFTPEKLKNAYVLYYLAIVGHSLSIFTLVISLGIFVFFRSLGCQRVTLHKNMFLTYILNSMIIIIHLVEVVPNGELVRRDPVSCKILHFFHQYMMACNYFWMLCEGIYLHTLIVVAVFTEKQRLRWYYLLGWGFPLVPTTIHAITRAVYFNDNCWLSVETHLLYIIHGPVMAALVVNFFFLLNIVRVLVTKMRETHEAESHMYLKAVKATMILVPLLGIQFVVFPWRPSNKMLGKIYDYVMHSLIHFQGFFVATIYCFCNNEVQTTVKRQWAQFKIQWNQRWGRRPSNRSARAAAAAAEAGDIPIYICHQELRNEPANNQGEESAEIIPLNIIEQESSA
Method in brief: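 IC₅₀ values were derived by one-site competition analysis of SPA counts. Cell membranes (35 ng/μL) with SPA beads were incubated with test compounds for 120 min at 25° C in Hepes buffer, pH 7.4, containing CaCl2, MgCl₂, OA and Tween20.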

[2] = target: T2, human amylin receptor (amylin 3(a) receptor: human calcitonin receptor with RAMP-3) (human, UniProt P30988 25-474; O60896 24-148); test: SPA competition with 125I-rat amylin on membranes of BHK cells with human calcitonin receptor and RAMP-3 (Assay V)
T2 construct: whole, on cells; Assay used cell membranes of the Amylin 3(a)/CRE-luc BHK cells, not intact cells; also called hAmylin-R; hAmylinR
T2 sequence (looked up) 1: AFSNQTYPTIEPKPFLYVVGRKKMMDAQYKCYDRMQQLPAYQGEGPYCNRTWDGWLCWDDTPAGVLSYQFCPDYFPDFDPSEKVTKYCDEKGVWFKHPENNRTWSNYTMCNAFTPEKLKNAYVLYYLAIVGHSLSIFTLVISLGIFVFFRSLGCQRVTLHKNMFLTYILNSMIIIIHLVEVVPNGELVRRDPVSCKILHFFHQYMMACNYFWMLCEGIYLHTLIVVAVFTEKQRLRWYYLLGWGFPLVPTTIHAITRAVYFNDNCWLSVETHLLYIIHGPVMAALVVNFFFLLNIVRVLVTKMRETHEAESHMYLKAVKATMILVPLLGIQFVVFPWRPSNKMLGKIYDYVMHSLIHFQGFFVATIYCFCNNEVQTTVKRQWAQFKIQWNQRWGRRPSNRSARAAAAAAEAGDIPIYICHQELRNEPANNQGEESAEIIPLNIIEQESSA
T2 sequence (looked up) 2: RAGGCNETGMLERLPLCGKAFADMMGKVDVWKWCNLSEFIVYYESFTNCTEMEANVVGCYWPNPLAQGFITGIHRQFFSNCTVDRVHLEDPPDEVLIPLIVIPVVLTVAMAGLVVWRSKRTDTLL
Method in brief: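 Cell membranes were prepared by homogenisation in Na-HEPES/EDTA buffer, pH 7.4, and stored at −80° C. They were then coupled to SPA beads at 35 ng/μL final and exposed to compounds in assay buffer containing CaCl2, MgCl₂, OA and Tween20. After 120 min at 25° C, plates were counted and IC₅₀ derived.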

[3] = target: T1, human calcitonin receptor; test: SPA competition with 125I-calcitonin on membranes of BHK cells with human calcitonin receptor (Assay VII)
Method in brief: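 BHK hCTR membranes 35 ng/μL + SPA beads 0.05 mg/well; buffer 50 mM Hepes pH 7.4, 1 mM CaCl2, 5 mM MgCl₂, 0.1% OA, 0.02% Tween20. 120 min, 25° C., shaking. Scintillation count; IC50 by one-site binding competition.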

Binder	Ratio hCT/hAmylin binding [1]	IC50 [2] [nM]	IC50 [3] [nM]
K([γGlu-C20 diacid])CNTATCATQRLANFLRHSSPNFGAIPSSTNVGHNTY-NH2 (disulfide 2-7; N-terminus assumed; SMILES CC[C@H](C)[C@H](NC(=O)[C@H](C)NC(=O)CNC(=O)[C@H](Cc1ccccc1)NC(=O)[C@H](CC(N)=O)NC(=O)[C@@H]1CCCN1C(=O)[C@H](CO)NC(=O)[C@H](CO)NC(=O)[C@H](Cc1c[nH]cn1)NC(=O)[C@H](CCCNC(=N)N)NC(=O)[C@H](CC(C)C)NC(=O)[C@H](Cc1ccccc1)NC(=O)[C@H](CC(N)=O)NC(=O)[C@H](C)NC(=O)[C@H](CC(C)C)NC(=O)[C@H](CCCNC(=N)N)NC(=O)[C@H](CCC(N)=O)NC(=O)[C@@H](NC(=O)[C@H](C)NC(=O)[C@@H]1CSSC[C@H](NC(=O)[C@@H](N)CCCCNC(=O)CC[C@H](NC(=O)CCCCCCCCCCCCCCCCCCC(=O)O)C(=O)O)C(=O)N[C@@H](CC(N)=O)C(=O)N[C@@H]([C@@H](C)O)C(=O)N[C@@H](C)C(=O)N[C@@H]([C@@H](C)O)C(=O)N1)[C@@H](C)O)C(=O)N1CCC[C@H]1C(=O)N[C@@H](CO)C(=O)N[C@@H](CO)C(=O)N[C@H](C(=O)N[C@@H](CC(N)=O)C(=O)N[C@H](C(=O)NCC(=O)N[C@@H](Cc1c[nH]cn1)C(=O)N[C@@H](CC(N)=O)C(=O)N[C@H](C(=O)N[C@@H](Cc1ccc(O)cc1)C(N)=O)[C@@H](C)O)C(C)C)[C@@H](C)O, also called compound 77) [N^ε1-[(4S)-4-carboxy-4-(19-carboxynonadecanoylamino)butanoyl]-[Arg17,Pro21,Pro27,His34]-h-amylin]	118	0.428	50.7
K([γGlu-C20 diacid])CNTATCATQRLADFLRHSSPNFGAIPSSTNVGPRTY-NH2 (disulfide 2-7; N-terminus assumed; SMILES CC[C@H](C)[C@H](NC(=O)[C@H](C)NC(=O)CNC(=O)[C@H](Cc1ccccc1)NC(=O)[C@H](CC(N)=O)NC(=O)[C@@H]1CCCN1C(=O)[C@H](CO)NC(=O)[C@H](CO)NC(=O)[C@H](Cc1c[nH]cn1)NC(=O)[C@H](CCCNC(=N)N)NC(=O)[C@H](CC(C)C)NC(=O)[C@H](Cc1ccccc1)NC(=O)[C@H](CC(=O)O)NC(=O)[C@H](C)NC(=O)[C@H](CC(C)C)NC(=O)[C@H](CCCNC(=N)N)NC(=O)[C@H](CCC(N)=O)NC(=O)[C@@H](NC(=O)[C@H](C)NC(=O)[C@@H]1CSSC[C@H](NC(=O)[C@@H](N)CCCCNC(=O)CC[C@H](NC(=O)CCCCCCCCCCCCCCCCCCC(=O)O)C(=O)O)C(=O)N[C@@H](CC(N)=O)C(=O)N[C@@H]([C@@H](C)O)C(=O)N[C@@H](C)C(=O)N[C@@H]([C@@H](C)O)C(=O)N1)[C@@H](C)O)C(=O)N1CCC[C@H]1C(=O)N[C@@H](CO)C(=O)N[C@@H](CO)C(=O)N[C@H](C(=O)N[C@@H](CC(N)=O)C(=O)N[C@H](C(=O)NCC(=O)N1CCC[C@H]1C(=O)N[C@@H](CCCNC(=N)N)C(=O)N[C@H](C(=O)N[C@@H](Cc1ccc(O)cc1)C(N)=O)[C@@H](C)O)C(C)C)[C@@H](C)O)	151	0.281	42.5
K([γGlu-C20 diacid])CNTATCATQRLAEFLRHSSPNFGAIPSSTNVGRETY-NH2 (disulfide 2-7; N-terminus assumed; SMILES CC[C@H](C)[C@H](NC(=O)[C@H](C)NC(=O)CNC(=O)[C@H](Cc1ccccc1)NC(=O)[C@H](CC(N)=O)NC(=O)[C@@H]1CCCN1C(=O)[C@H](CO)NC(=O)[C@H](CO)NC(=O)[C@H](Cc1c[nH]cn1)NC(=O)[C@H](CCCNC(=N)N)NC(=O)[C@H](CC(C)C)NC(=O)[C@H](Cc1ccccc1)NC(=O)[C@H](CCC(=O)O)NC(=O)[C@H](C)NC(=O)[C@H](CC(C)C)NC(=O)[C@H](CCCNC(=N)N)NC(=O)[C@H](CCC(N)=O)NC(=O)[C@@H](NC(=O)[C@H](C)NC(=O)[C@@H]1CSSC[C@H](NC(=O)[C@@H](N)CCCCNC(=O)CC[C@H](NC(=O)CCCCCCCCCCCCCCCCCCC(=O)O)C(=O)O)C(=O)N[C@@H](CC(N)=O)C(=O)N[C@@H]([C@@H](C)O)C(=O)N[C@@H](C)C(=O)N[C@@H]([C@@H](C)O)C(=O)N1)[C@@H](C)O)C(=O)N1CCC[C@H]1C(=O)N[C@@H](CO)C(=O)N[C@@H](CO)C(=O)N[C@H](C(=O)N[C@@H](CC(N)=O)C(=O)N[C@H](C(=O)NCC(=O)N[C@@H](CCCNC(=N)N)C(=O)N[C@@H](CCC(=O)O)C(=O)N[C@H](C(=O)N[C@@H](Cc1ccc(O)cc1)C(N)=O)[C@@H](C)O)C(C)C)[C@@H](C)O)	28.5	0.232	6.62
K([γGlu-C20 diacid])CNTATCATQRLAEFLRHSSPNFGAIPSSTNVGSHTY-NH2 (disulfide 2-7; N-terminus assumed; SMILES CC[C@H](C)[C@H](NC(=O)[C@H](C)NC(=O)CNC(=O)[C@H](Cc1ccccc1)NC(=O)[C@H](CC(N)=O)NC(=O)[C@@H]1CCCN1C(=O)[C@H](CO)NC(=O)[C@H](CO)NC(=O)[C@H](Cc1c[nH]cn1)NC(=O)[C@H](CCCNC(=N)N)NC(=O)[C@H](CC(C)C)NC(=O)[C@H](Cc1ccccc1)NC(=O)[C@H](CCC(=O)O)NC(=O)[C@H](C)NC(=O)[C@H](CC(C)C)NC(=O)[C@H](CCCNC(=N)N)NC(=O)[C@H](CCC(N)=O)NC(=O)[C@@H](NC(=O)[C@H](C)NC(=O)[C@@H]1CSSC[C@H](NC(=O)[C@@H](N)CCCCNC(=O)CC[C@H](NC(=O)CCCCCCCCCCCCCCCCCCC(=O)O)C(=O)O)C(=O)N[C@@H](CC(N)=O)C(=O)N[C@@H]([C@@H](C)O)C(=O)N[C@@H](C)C(=O)N[C@@H]([C@@H](C)O)C(=O)N1)[C@@H](C)O)C(=O)N1CCC[C@H]1C(=O)N[C@@H](CO)C(=O)N[C@@H](CO)C(=O)N[C@H](C(=O)N[C@@H](CC(N)=O)C(=O)N[C@H](C(=O)NCC(=O)N[C@@H](CO)C(=O)N[C@@H](Cc1c[nH]cn1)C(=O)N[C@H](C(=O)N[C@@H](Cc1ccc(O)cc1)C(N)=O)[C@@H](C)O)C(C)C)[C@@H](C)O)	26.4	0.992	26.1
K([γGlu-C20 diacid])CNTATCATQRLAEFLRHSSPNFGAIPSSTNVGPRTY-NH2 (disulfide 2-7; N-terminus assumed; SMILES CC[C@H](C)[C@H](NC(=O)[C@H](C)NC(=O)CNC(=O)[C@H](Cc1ccccc1)NC(=O)[C@H](CC(N)=O)NC(=O)[C@@H]1CCCN1C(=O)[C@H](CO)NC(=O)[C@H](CO)NC(=O)[C@H](Cc1c[nH]cn1)NC(=O)[C@H](CCCNC(=N)N)NC(=O)[C@H](CC(C)C)NC(=O)[C@H](Cc1ccccc1)NC(=O)[C@H](CCC(=O)O)NC(=O)[C@H](C)NC(=O)[C@H](CC(C)C)NC(=O)[C@H](CCCNC(=N)N)NC(=O)[C@H](CCC(N)=O)NC(=O)[C@@H](NC(=O)[C@H](C)NC(=O)[C@@H]1CSSC[C@H](NC(=O)[C@@H](N)CCCCNC(=O)CC[C@H](NC(=O)CCCCCCCCCCCCCCCCCCC(=O)O)C(=O)O)C(=O)N[C@@H](CC(N)=O)C(=O)N[C@@H]([C@@H](C)O)C(=O)N[C@@H](C)C(=O)N[C@@H]([C@@H](C)O)C(=O)N1)[C@@H](C)O)C(=O)N1CCC[C@H]1C(=O)N[C@@H](CO)C(=O)N[C@@H](CO)C(=O)N[C@H](C(=O)N[C@@H](CC(N)=O)C(=O)N[C@H](C(=O)NCC(=O)N1CCC[C@H]1C(=O)N[C@@H](CCCNC(=N)N)C(=O)N[C@H](C(=O)N[C@@H](Cc1ccc(O)cc1)C(N)=O)[C@@H](C)O)C(C)C)[C@@H](C)O)	38.6	0.163	6.3
